Results: the supplement of paper PMC10567573

B1: TRIM43 (parent)
chain: RAQMIRNEYRKLHPVLHKEEKQHL
B2: EHMT1 (parent)
chain: EEINKNISDFGRQQLLPPFPSLHQ

Variants of: B1
Assay: protein stability index of a GFP-peptide fusion (GPS, HEK-293T) (PSI 1-6); higher = more stable
Conditions: c terminus: a fixed tail appended
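Further: lentivirally expressed fusions sorted by FACS into six bins by GFP to DsRed ratio, PSI derived from sequencing read proportions per bin multiplied by bin number.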

Protein stability index of substitutions, site by site:
M4: E 3.86, L 3.2, P 3.73, G 3.66, F 2.61, C 3.23, H 3.46, R 3.11, N 3.45, K 3.2, D 3.53, I 2.6, Q 2.8, A 3.49
Q3: G 3.04, N 3.19, K 3.7, A 2.67, M 2.82, H 3.13, F 2.33, E 3.48, S 3.22, L 2.41, D 3.64, C 2.68, R 2.81, Y 2.54, T 3.27, W 2.79, V 2.63, P 3.39, I 2.78
R1: C 2.17, T 2.85, N 3.44, D 3.89, M 2.47, Y 1.77, H 3.47, S 3.78, W 1.92, Q 3.04, G 3.55, V 3.99, K 2.93, P 3.38, E 3.29, I 2.01, F 1.92, A 3.44, L 2.33
A2: M 2.91, Q 3.09, K 3.2, V 2.78, E 4.26, L 2.96, Y 3.13, W 2.27, F 1.95, C 3.35, G 3.61, H 3.26, I 2.14, N 3.18, P 3.84, S 2.99, R 3.76, T 3.17, D 3.51

Variants of: B2
Assay: as above
Conditions: c terminus: a fixed tail appended

Protein stability index: each site, then its substitutions
P20: D 3.5, F 2.61, N 3.32, E 3.73, G 3.37, H 2.69, L 2.73, I 2.69, M 2.51, K 3.3, A 2.82, S 3.22, W 1.82, V 3.02, R 2.5, Q 3.31, T 3.01, Y 2.59, C 2.87
S21: N 2.73, H 3.58, M 2.01, E 3.59, W 1.98, K 3.68, A 2.36, F 2.59, D 3.9, I 2.62, R 3.21, Y 2.54, Q 3.33, T 3, G 2.7, P 3.54, V 2.82, C 3.06, L 2.9
R12: N 3.5, M 2.47, D 3.64, A 3.2, Y 2.86, E 3.46, C 2.79, Q 2.97, H 2.77, I 2.93, V 3.25, L 2.74, W 2.24, G 3.15, T 3.52, S 3.12, P 3.38, K 3.06, F 2.23
Q13: H 2.32, D 3.25, G 3, W 2.23, C 2.06, V 2.45, P 3.4, E 3.38, A 3.2, K 2.59, F 2.5, M 2.94, I 2.19, N 2.65, L 2.48, R 2.42, T 2.56, Y 2.7, S 2.75
F19: H 3.69, P 4.41, E 4.39, I 3.61, L 3.54, G 4.05, Q 4.38, S 4.19, Y 3.29, N 4.37, W 2.01, C 4.24, M 4.19, K 3.99, D 4.42, R 4.1, A 4.02, T 4.04, V 3.76
Q14: H 2.29, G 2.92, Y 1.78, D 2.84, N 2.54, F 2.02, T 2.45, S 2.62, I 2.77, E 3, C 2.18, V 2.77, L 2.31, W 2.03, R 2.45, A 2.74, M 2.49, P 2.39, K 2.84
G11: N 3, S 2.73, I 1.71, M 2.85, W 1.55, H 2.43, R 2.48, Q 3.25, V 2.24, Y 2.15, K 2.59, T 2.53, F 2.02, P 2.87, L 1.88, E 3.06
H23: G 3.14, M 2.48, W 2.6, E 3.59, A 3.4, I 2.93, T 3.39, Y 2.14, N 3.07, V 2.97, Q 3.02, L 2.53, S 2.86, C 2.66, P 3.17, R 3.08, K 3.61, F 2.38, D 3.85
L16: I 2.82, R 3.23, C 3.26, K 3.05, F 2.42, N 3.71, A 3.57, G 3.85, V 3.33, S 3.73, D 4, P 3.34, Y 2.45, T 3.5, E 3.72, W 2.65, Q 3.83, M 2.79, H 3.32
P17: A 2.79, Y 2.54, K 3.09, N 2.54, H 2.52, S 3.22, C 2.84, M 2.27, D 2.74, L 2.21, Q 3.27, F 2.02, E 3.87, W 2.02, R 2.94, G 2.83, I 1.82, V 2.18, T 2.41
L22: K 4.33, W 2.57, D 4.7, N 4.04, C 3.82, I 3.18, Y 2.47, M 3.1, H 3.42, G 3.81, P 3.91, E 4.75, A 3.73, S 4.33, Q 3.65, T 3.85, F 2.79, R 3.62, V 3.21
P18: G 3.31, I 2.87, E 3.66, T 2.92, A 3.28, M 2.95, D 3.46, R 3.57, Y 2.94, C 3.16, Q 3.63, S 3.12, V 3.34, L 3.07, W 3.06, H 3.15, F 2.91, N 3.05, K 3.36
Q24: W 3.45, L 3.78, H 2.43, S 2.5, K 3.55, R 2.96, V 2.65, Y 2.49, T 2.34, A 2.42, F 2.81, D 4.02, I 2.17, E 4.23, C 1.91, G 2.53, N 2.9, P 3.43, M 2.77
L15: Q 3.3, V 3.62, C 2.54, G 3.37, T 3.15, R 3.28, E 3.65, S 2.82, D 3.81, M 2.71, P 2.92, K 3.07, I 2.85, A 2.81, F 2.31, N 2.87, Y 2.97, W 2.5, H 2.96
